According to patent US20090166224A1 (published 2009):

What was measured:
Test in all cases: human serum on Con A/WGA/Jacalin column, lectin-specific displacer fraction, LC-MS/MS; grade = SEQUEST rank group (+ = ranks 1-5, ++++ = 16-20)
[1] = biological target: T1, HAPTOGLOBIN-RELATED PROTEIN (human, UniProt P00739 1-348, limits assumed)
T1 construct: from human serum; also called HPTR
T1 sequence (looked up): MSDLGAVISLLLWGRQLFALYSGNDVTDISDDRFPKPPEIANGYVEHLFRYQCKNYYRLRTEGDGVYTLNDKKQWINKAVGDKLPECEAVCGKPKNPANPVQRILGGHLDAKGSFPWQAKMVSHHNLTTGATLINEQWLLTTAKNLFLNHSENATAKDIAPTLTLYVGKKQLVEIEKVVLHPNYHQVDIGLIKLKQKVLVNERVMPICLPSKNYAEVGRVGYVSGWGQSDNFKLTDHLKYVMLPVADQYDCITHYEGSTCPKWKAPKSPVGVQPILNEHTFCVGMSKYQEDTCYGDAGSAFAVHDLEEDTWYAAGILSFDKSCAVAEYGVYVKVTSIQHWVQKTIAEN

[2] = biological target: T2, ALPHA-2-MACROGLOBULIN (human, UniProt P01023 24-1474)
T2 construct: also called A2MG; α2-macroglobulin
T2 sequence (looked up): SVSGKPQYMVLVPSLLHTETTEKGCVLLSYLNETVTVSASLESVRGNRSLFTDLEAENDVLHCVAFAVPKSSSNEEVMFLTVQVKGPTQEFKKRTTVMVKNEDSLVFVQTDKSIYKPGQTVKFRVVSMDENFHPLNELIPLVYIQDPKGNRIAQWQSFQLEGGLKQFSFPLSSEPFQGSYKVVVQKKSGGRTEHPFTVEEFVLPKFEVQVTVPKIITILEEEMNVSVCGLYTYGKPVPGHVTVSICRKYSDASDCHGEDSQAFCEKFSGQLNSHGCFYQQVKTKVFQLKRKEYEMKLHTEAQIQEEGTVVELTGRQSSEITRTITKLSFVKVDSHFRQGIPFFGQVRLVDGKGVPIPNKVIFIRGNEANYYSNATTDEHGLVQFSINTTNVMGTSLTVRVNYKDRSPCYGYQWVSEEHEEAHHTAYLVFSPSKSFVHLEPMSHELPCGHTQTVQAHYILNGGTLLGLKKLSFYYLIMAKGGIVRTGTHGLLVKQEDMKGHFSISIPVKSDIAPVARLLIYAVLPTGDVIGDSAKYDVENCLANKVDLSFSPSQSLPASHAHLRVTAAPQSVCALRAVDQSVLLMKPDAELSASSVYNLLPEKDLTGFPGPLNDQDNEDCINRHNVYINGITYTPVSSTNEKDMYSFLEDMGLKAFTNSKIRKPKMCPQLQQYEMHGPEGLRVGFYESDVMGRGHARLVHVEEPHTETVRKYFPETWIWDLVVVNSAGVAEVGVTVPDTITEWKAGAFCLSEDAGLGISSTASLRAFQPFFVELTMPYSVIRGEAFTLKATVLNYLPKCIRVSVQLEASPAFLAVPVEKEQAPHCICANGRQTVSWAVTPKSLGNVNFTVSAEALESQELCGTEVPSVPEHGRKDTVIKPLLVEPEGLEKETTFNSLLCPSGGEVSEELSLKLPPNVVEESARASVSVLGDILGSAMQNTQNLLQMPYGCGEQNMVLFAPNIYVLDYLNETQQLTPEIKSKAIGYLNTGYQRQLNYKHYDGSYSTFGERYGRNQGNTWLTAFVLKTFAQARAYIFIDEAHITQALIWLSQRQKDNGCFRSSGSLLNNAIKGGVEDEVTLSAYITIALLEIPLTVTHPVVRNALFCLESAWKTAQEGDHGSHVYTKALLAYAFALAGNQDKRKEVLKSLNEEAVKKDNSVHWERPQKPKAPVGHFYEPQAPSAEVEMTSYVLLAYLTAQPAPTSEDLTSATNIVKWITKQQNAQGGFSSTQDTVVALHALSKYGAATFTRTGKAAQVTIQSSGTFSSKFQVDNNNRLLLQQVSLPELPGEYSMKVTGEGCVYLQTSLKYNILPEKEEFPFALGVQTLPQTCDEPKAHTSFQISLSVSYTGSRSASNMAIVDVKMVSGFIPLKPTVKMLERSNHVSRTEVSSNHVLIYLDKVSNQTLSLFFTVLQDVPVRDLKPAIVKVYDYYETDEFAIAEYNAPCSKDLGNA

[3] = biological target: T3, IG MU CHAIN C REGION (human, UniProt P01871-1 1-453)
T3 construct: domain: C region; Polyclonal serum IgM, identified through its constant region; variable regions and light chains not defined
T3 heavy (looked up): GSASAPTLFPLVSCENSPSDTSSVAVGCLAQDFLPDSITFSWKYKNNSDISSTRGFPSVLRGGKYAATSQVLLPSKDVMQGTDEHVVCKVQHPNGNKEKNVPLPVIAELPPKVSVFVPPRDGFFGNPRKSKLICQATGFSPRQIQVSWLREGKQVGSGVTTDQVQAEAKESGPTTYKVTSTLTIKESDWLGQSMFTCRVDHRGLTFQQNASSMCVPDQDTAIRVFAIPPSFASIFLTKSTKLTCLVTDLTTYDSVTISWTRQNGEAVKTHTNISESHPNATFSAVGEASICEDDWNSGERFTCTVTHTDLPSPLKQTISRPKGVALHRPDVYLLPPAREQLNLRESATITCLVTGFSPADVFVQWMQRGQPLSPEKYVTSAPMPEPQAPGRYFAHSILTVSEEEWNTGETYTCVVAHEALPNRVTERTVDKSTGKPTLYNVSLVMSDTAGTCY

[4] = biological target: T4, VITRONECTIN (human, UniProt P04004 20-478)
T4 construct: from human serum; also called VTNC
T4 sequence (P04004 20-478 limits assumed): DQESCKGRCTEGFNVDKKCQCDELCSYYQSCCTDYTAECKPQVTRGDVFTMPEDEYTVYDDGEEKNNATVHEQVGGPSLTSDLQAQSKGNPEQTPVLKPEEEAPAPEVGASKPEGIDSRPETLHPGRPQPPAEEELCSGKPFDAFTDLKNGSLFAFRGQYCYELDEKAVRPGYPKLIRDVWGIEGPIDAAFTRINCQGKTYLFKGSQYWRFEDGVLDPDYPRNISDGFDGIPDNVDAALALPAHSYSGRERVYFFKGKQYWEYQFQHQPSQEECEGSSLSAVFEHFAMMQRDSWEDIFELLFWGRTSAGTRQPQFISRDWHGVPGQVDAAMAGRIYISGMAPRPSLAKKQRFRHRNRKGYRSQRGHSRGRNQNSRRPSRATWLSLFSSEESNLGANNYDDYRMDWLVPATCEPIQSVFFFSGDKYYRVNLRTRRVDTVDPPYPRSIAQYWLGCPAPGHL

[5] = biological target: T5, IG ALPHA-1 CHAIN C REGION (human, UniProt P01876-1 1-353)
T5 construct: domain: C region; Polyclonal serum IgA, identified through its constant region; variable regions and light chains not defined; also called ALC1
T5 sequence (P01876 other isoform, or with tags, fused parts or gaps limits assumed): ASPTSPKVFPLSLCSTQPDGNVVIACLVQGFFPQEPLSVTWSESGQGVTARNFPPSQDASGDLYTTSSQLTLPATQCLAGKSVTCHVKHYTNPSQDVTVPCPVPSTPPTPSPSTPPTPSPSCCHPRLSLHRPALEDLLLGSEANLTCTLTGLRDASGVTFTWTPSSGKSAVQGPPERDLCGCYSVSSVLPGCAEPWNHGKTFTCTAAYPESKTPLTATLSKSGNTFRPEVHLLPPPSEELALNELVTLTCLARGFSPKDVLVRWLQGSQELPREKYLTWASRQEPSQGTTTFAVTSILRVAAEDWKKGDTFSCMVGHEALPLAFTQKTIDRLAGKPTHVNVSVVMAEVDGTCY

B1: wheat germ agglutinin (WGA), agarose-bound (other, UniProt P10968 27-197, looked up)
chain: QRCGEQGSNMECPNNLCCSQYGYCGMGGDYCGKGCQNGACWTSKRCGSQAGGATCTNNQCCSQYGYCGFGAEYCGAGCQGGPCRADIKCGSQAGGKLCPNNLCCSQWGFCGLGSEFCGGGCQSGACSTDKPCGKDAGGRVCTNNYCCSKWGSCGIGPGYCGAGCQSGGCDG
modifications: immobilized on agarose
notes: Lectin; released with N-acetyl-glucosamine; Coated on the plate in the lectin ELISA
[1]
  SEQUEST ranking (relative abundance in the WGA displacement fraction): 1 to 5 rank
[2]
  SEQUEST ranking (relative abundance in the WGA displacement fraction): 1 to 5 rank
[3]
  SEQUEST ranking (relative abundance in the WGA displacement fraction): 6 to 10 rank
[4]
  SEQUEST ranking (relative abundance in the WGA displacement fraction): 6 to 10 rank
[5]
  SEQUEST ranking (relative abundance in the WGA displacement fraction): 1 to 5 rank
